# Measurements taken from publication doi:10.1101/824458 (bioRxiv, 2019).
# Legend:
# [1] = target: NS5A-ΔN39 (residues 39-447), recombinant, lacking the membrane-binding amphipathic helix (hepatitis C virus) (UniProt Q9WMX2); test: cross-linking
# [2] = target: the molecule itself; test: cross-linking
Molecule,stoichiometry N [1],stoichiometry N [2]
"NS5A-ΔN39 (residues 39-447), recombinant, lacking the membrane-binding amphipathic helix (from UniProt Q9WMX2 40-448) (domain or fragment)",2,
"viperin-ΔN50 (residues 50-361), recombinant, C-terminal His6-tagged, iron-sulfur cluster reconstituted (domain or fragment, human, UniProt Q8WXG1 50-361, looked up) QLVLRGPDETKEEEEDPPLPTTPTSVNYHFTRQCNYKCGFCFHTAKTSFVLPLEEAKRGLLLLKEAGMEKINFSGGEPFLQDRGEYLGKLVRFCKVELRLPSVSIVSNGSLIRERWFQNYGEYLDILAISCDSFDEEVNVLIGRGQGKKNHVENLQKLRRWCRDYRVAFKINSVINRFNVEEDMTEQIKALNPVRWKVFQCLLIEGENCGEDALREAERFVIGDEEFERFLERHKEVSCLVPESNQKMKDSYLILDEYMRFLNCRKGRKDPSKSILDVGVEEAIKFSGFDEKMFLKRGGKYIWSKADLKLDW",,2
"VAP-33-ΔC20 (recombinant human VAP-33 protein, residues 1-227) (domain or fragment, UniProt Q9P0L0 1-227, looked up) MASASGAMAKHEQILVLDPPTDLKFKGPFTDVVTTNLKLRNPSDRKVCFKVKTTAPRRYCVRPNSGIIDPGSTVTVSVMLQPFDYDPNEKSKHKFMVQTIFAPPNTSDMEAVWKEAKPDELMDSKLRCVFEMPNENDKLNDMEPSKAVPLNASKQDGPMPKPHSVSLNDTETRKLMEECKRLQGEMMKLSEENRHLRDEGLRLRKVAHSDKPGSTSTASFRDNVTSP",,2
